Laboratory results published in PMC2812701, “RelB and RelE of Escherichia coli Form a Tight Complex That Represses Transcription via the Ribbon–Helix–Helix Motif in RelB” (Journal of Molecular Biology, 2009).
Where a chain is given by its changes, count along the chain named. Numbers in names are those of the source. Where “and” joins values, the source holds several entries; their conditions need not be identical. Equal values may be shown once.

What was measured:
[1] = system: RelB S28L;His6-RelE (Escherichia coli;Escherichia coli); test: EMSA; details: EMSA and footprint binding buffer as in an earlier paper (not given); footprint binding volume 35 ul, radical cleavage 37 C 1 min; native PAGE for EMSA
[2] = system: RelB K13A;His6-RelE (Escherichia coli;Escherichia coli); test: EMSA; details: EMSA and footprint binding buffer as in an earlier paper (not given); footprint binding volume 35 ul, radical cleavage 37 C 1 min; native PAGE for EMSA
[3] = system: RelB R7A;His6-RelE (Escherichia coli;Escherichia coli); test: EMSA; details: EMSA and footprint binding buffer as in an earlier paper (not given); footprint binding volume 35 ul, radical cleavage 37 C 1 min; native PAGE for EMSA
RelB-Cys (E. coli) [4] = biological target: RelB-Cys (E. coli) (UniProt P0C079); test: SPR; Biacore 3000, CM5 chip; about 40 RU RelB-Cys immobilised by ligand thiol coupling; His6-RelE injected at 12.5-100 nM, 60 ul/min; HBS-EP (10 mM Hepes, 150 mM NaCl, 0.005% Tween 20, 3 mM EDTA, pH 7.4); 1:1 Langmuir fit; apparent Kd (koff/kon)
RelB-Cys (E. coli) [5] = biological target: RelB-Cys (E. coli) (UniProt P0C079); test: SPR; Biacore 3000, CM5 chip; RelB-Cys immobilised by ligand thiol coupling; Lon-His6 injected at 200 nM with or without MgCl2 (8 mM) and ATP (2 mM), and at 12.5-100 nM (monomer) for kinetics; 60 ul/min; HBS-EP pH 7.4; apparent Kd
HMK-RelB (E. coli) = biological target: T1, HMK-RelB (E. coli) (UniProt P0C079)
T1 sequence (chain, 32P label on the N-terminal HMK-tag (RRASV)): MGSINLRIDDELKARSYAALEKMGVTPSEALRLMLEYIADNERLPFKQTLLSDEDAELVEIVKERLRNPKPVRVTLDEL

His6-RelE [6] = biological target: T2, His6-RelE (E. coli, UniProt P0C077 1-95); test: amino acid analysis of the co-purified complex; purified RelB·RelE complex preformed in vivo (Table S2); details: partners not purified
T2 construct: toxin RelE (mRNA interferase) of the relBE locus, Escherichia coli, wild type; also called co-repressor RelE; mRNA interferase RelE; source: also in cells, co-expressed with RelB; not shown: His6, N-terminal, kept
T2 sequence (looked up): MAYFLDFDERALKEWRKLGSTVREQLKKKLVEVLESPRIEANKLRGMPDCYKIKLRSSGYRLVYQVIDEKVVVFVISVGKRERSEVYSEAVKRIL

His6-RelE [7] = biological target: T2, His6-RelE; test: other fluorescence titration; tryptophan fluorescence of His6-RelE (0.35 uM) titrated with RelB; 25 °C; phosphate-buffered saline pH 7.4; excitation 295 nm, emission about 330 nm; details: both partners purified
[8] = biological target: the molecule itself; test: cross-linking; chemical cross-linking of WT RelB and the mutated variants with BS3 [bis(sulfosuccinimidyl) suberate] (Fig. S1)

relO166 (Cy5)
K half [1]: > 1250 nM
K half [2]: > 1250 nM
K half [3]: > 1250 nM

His6-RelE (from UniProt P0C077 1-95) (natural protein)
Kd (RelB-Cys (E. coli) [4]): 330 pM
in vitro half-life of the complex (RelB-Cys (E. coli) [4]): 1.17 h
koff (RelB-Cys (E. coli) [4]): 0.000166 s⁻¹
kon (RelB-Cys (E. coli) [4]): 501000 M⁻¹ s⁻¹

Lon-His6 (from UniProt P0A9M0 1-784) (enzyme)
Kd (RelB-Cys (E. coli) [5]): < 2000 pM
koff (RelB-Cys (E. coli) [5]): 0.000234 s⁻¹
in vitro degradation of 32P-labelled HMK-RelB (0.13 uM) by Lon (0.6 uM) at 37 °C, ATP- and Mg2+-dependent, time course up to 120 min; in vitro half-life of HMK-RelB (HMK-RelB (E. coli)): > 1 h

B1: RelB (wild type) (natural protein, E. coli, UniProt P0C079 1-79, looked up)
chain: T1 sequence (chain, 32P label on the N-terminal HMK-tag (RRASV))
notes: antitoxin RelB of the relBE locus, Escherichia coli, wild type; also called WT RelB; antitoxin RelB; source: also in cells, co-expressed with His6-RelE
stoichiometry N (His6-RelE [6]): 2 RelB/RelE
stoichiometry N (His6-RelE [7]): ~2 RelB/RelE
stoichiometry N [8]: 2 and 4

B2: RelB^K13A (natural protein, E. coli, UniProt P0C079 1-79, looked up)
chain: T1 sequence (chain, 32P label on the N-terminal HMK-tag (RRASV)) with K13A
notes: antitoxin RelB, Escherichia coli, with K13A; also called RelB RHH variant K13A; source: also in cells, co-expressed with His6-RelE
binding result [8]: binds

B3: RelB^S28R (natural protein, E. coli, UniProt P0C079 1-79, looked up)
chain: T1 sequence (chain, 32P label on the N-terminal HMK-tag (RRASV)) with S28R
notes: antitoxin RelB, Escherichia coli, with S28R; also called RelB RHH variant S28R; source: also in cells, co-expressed with His6-RelE
stoichiometry N [8]: 2 and 4

B4: RelB^I8A (natural protein, E. coli, UniProt P0C079 1-79, looked up)
chain: T1 sequence (chain, 32P label on the N-terminal HMK-tag (RRASV)) with I8A
notes: antitoxin RelB, Escherichia coli, with I8A; also called RelB RHH variant I8A; source: also in cells, co-expressed with His6-RelE
stoichiometry N [8]: 2 and 4

B5: RelB^R7A (natural protein, E. coli, UniProt P0C079 1-79, looked up)
chain: T1 sequence (chain, 32P label on the N-terminal HMK-tag (RRASV)) with R7A
notes: antitoxin RelB, Escherichia coli, with R7A; also called RelB RHH variant R7A; source: also in cells, co-expressed with His6-RelE
binding result [8]: binds

B6: RelB^S28L (natural protein, E. coli, UniProt P0C079 1-79, looked up)
chain: T1 sequence (chain, 32P label on the N-terminal HMK-tag (RRASV)) with S28L
notes: antitoxin RelB, Escherichia coli, with S28L; also called RelB RHH variant S28L; source: also in cells, co-expressed with His6-RelE
stoichiometry N [8]: 2 and 4
